Experimental data: patent US20100184663A1

How the values were obtained:
[1] = target: HIV-1 gp41 (HXB2 strain) (HIV-1 HXB2) (UniProt P04578); experiment: cell-based or functional assay
[2] = target: HIV-1 gp41 (JRFL strain) (HIV-1 JRFL); experiment: cell-based or functional assay

Substance “Fuzeon (from UniProt P04578 638-673) (peptide)” has an IC50 (HXB2), pseudovirion entry [1] of 3.7 nM, an IC50 (HXB2), single-cycle viral infectivity assay [1] of 3.7 nM and an IC50 (JRFL), pseudovirion entry [2] of 5 nM.
